The results in this text go back to US20240132626A1.

In general, Kd refers to the equilibrium constant for the complex coming apart. Low readings indicate higher affinity, high ones lower affinity. What is called koff is the first-order rate constant of dissociation. Read a low koff as a long-lived complex. Broadly, the kon is the second-order rate constant of association.

The target of this assay is Soluble human CD137 ECD protein (human) (UniProt Q07011). The assay can be described thus: SPR, captured via anti-human kappa, soluble ECD injected. Background: In SPR one partner is held on a chip, and binding of the other changes the refractive index at the surface.
Sequence of Soluble human CD137 ECD protein (human) (Q07011 24-186): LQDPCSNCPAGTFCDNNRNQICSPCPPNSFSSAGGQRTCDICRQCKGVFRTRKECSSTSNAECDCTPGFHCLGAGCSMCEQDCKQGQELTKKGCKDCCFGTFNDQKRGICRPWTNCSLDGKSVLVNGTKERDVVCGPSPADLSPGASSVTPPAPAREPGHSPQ

Sequence of Urelumab (antibody) (VH): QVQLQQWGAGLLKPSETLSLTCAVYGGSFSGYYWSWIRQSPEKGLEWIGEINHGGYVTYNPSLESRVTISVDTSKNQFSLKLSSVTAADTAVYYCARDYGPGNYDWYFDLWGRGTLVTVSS
Sequence of Urelumab (antibody) (VL): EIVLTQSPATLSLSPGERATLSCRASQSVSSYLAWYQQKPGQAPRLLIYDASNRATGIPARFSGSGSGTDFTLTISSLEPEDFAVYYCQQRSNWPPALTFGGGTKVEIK

Urelumab (antibody) showed a Kd of 11 nM, a koff of 0.0023 s⁻¹ and an on-rate (kon) of 210000 M⁻¹ s⁻¹.
